Source: paper PMC3659094

Target: human Tyrosine kinase receptor B (TrkB) (human) (UniProt Q16620)
UniProt Q16620, sequence (Q16620 other isoform, or with tags, fused parts or gaps): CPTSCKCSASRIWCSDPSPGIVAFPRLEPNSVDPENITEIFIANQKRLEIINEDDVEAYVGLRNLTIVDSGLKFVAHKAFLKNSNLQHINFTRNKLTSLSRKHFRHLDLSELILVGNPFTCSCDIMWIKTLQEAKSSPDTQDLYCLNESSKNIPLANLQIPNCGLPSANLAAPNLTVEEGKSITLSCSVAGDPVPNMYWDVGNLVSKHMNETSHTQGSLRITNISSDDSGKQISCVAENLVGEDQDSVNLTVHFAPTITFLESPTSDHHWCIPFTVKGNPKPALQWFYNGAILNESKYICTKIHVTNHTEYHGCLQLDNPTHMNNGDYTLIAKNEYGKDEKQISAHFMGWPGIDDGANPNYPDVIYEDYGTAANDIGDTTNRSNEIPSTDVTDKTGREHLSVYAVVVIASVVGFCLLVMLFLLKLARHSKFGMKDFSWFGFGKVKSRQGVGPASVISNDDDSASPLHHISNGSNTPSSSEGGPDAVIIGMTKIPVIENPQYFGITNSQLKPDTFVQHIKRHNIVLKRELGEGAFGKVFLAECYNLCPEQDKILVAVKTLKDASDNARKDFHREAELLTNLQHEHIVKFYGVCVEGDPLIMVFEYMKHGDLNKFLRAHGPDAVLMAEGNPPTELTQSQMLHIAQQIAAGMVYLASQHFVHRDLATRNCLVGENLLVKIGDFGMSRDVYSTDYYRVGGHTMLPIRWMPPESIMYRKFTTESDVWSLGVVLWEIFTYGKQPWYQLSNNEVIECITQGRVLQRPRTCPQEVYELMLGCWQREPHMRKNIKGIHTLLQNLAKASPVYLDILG

## brain-derived neurotrophic factor (BDNF) (ligand)
  EC50 of recruitment of SHC1 to human TrkB in U2OS cells (Pathhunter): 1 nM
  EC50 of transcriptional activation of a CRE-luciferase reporter in HEK293 cells expressing human TrkB: 5.2 nM
